Test results: US20080050387A1 (published 2008)

B1: f-hRad9, fragment of hRad9 isolated from yeast (aa 327-391) (other)
chain: LSPGPQPPKSPGPHSEEEDEAEPSTVPGTPPPKKFRSLFFGSILAPVRSPQGPSPVLAEDSEGEG
B2: testicular receptor 2 (TR2) (receptor)
chain: MATIEEIAHQIIEQQMGEIVTEQQTGQKIQIVTALDHNTQGKQFILTNHDGSTPSKVILARQDSTPGKVFLTTPDAAGVNQLFFTTPDLSAQHLQLLTDNSPDQGPNKVFDLCVVCGDKASGRHYGAVTCEGCKGFFKRSIRKNLVYSCRGSKDCIINKHHRNRCQYCRLQRCIAFGMKQDSVQCERKPIEVSREKSSNCAASTEKIYIRKDLRSPLTATPTFVTDSESTRSTGLLDSGMFMNIHPSGVKTESAVLMTSDKAESCQGDLSTLANVVTSLANLGKTKDLSQNSNEMSMIESLSNDDTSLCEFQEMQTNGDVSRAFDTLAKALNPGESTACQSSVAGMEGSVHLITGDSSINYTEKEGPLLSDSHVAFRLTMPSPMPEYLNVHYIGESASRLLFLSMHWALSIPSFQALGQENSISLVKAYWNELFTLGLAQCWQVMNVATILATFVNCLHNSLQQDAKVIAALIHFTRRAITDL
notes: hSos fusion (pSos-TR2) in yeast; also called pSos-TR2
B3: human checkpoint protein hRad9, full length (other)
chain: MKCLVTGGNVKVLGKAVHSLSRIGDELYLEPLEDGLSLRTVNSSRSAYACFLFAPLFFQQYQAATPGQDLLRCKILMKSFLSVFRSLAMLEKTVEKCCISLNGRSSRLVVQLHCKFGVRKTHNLSFQDCESLQAVFDPASCPHMLRAPARVLGEAVLPFSPALAEVTLGIGRGRRVILRSYHEEEADSTAKAMVTEMCLGEEDFQQLQAQEGVAITFCLKEFRGLLSFAESANLNLSIHFDAPGRPAIFTIKDSLLDGHFVLATLSDTDSHSQDLGSPERHQPVPQLQAHSTPHPDDFANDDIDSYMIAMETTIGNEGSRVLPSISLSPGPQPPKSPGPHSEEEDEAEPSTVPGTPPPKKFRSLFFGSILAPVRSPQGPSPVLAEDSEGEG
notes: Used as GST-hRad9 on beads, as GAL4 DBD fusion (mammalian two-hybrid), as Flag-hRad9 in 293T cells and as endogenous hRad9 of CWR22R cells; also called FL-hRad9; GST-hRad9
B4: AR DNA-binding domain (AR DBD) (receptor)
chain: KTCLICGDEASGCHYGALTCGSCKVFFKRAAEGKQKYLCASRNDCTIDKFRRKNCPSCRLRKCYEAG
notes: also called GAL4-AR-DBD

Key:
[1] = target: T1, estrogen receptor α (ERα) (UniProt P03372 1-595); test: mammalian two-hybrid in PC-3 cells, pM-f-hRad9 + VP16-ERα, in the presence of estrogen
T1 construct: also called VP16-ERα; ERcc
T1 sequence: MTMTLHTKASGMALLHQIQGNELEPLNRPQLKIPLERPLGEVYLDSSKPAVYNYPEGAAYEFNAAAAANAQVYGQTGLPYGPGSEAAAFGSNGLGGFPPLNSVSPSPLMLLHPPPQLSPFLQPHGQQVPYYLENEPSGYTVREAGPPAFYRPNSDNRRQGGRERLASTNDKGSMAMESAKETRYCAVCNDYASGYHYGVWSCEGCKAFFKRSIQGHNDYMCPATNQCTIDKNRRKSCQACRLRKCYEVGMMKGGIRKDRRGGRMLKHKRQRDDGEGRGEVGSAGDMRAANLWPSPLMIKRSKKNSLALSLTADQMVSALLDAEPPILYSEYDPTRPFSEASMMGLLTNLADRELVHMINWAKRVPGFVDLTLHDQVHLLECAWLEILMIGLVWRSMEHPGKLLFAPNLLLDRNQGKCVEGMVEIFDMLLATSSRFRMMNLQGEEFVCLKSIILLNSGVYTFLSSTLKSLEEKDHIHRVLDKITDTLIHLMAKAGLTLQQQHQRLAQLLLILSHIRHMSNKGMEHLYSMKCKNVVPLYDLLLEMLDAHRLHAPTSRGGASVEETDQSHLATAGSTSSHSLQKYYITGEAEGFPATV

vitamin D receptor (VDR) = target: T2, vitamin D receptor (VDR) (UniProt P11473 1-427); test: mammalian two-hybrid in PC-3 cells, pM-f-hRad9 + VP16-VDR
T2 construct: also called VP16-VDR; VP 16-VDR
T2 sequence: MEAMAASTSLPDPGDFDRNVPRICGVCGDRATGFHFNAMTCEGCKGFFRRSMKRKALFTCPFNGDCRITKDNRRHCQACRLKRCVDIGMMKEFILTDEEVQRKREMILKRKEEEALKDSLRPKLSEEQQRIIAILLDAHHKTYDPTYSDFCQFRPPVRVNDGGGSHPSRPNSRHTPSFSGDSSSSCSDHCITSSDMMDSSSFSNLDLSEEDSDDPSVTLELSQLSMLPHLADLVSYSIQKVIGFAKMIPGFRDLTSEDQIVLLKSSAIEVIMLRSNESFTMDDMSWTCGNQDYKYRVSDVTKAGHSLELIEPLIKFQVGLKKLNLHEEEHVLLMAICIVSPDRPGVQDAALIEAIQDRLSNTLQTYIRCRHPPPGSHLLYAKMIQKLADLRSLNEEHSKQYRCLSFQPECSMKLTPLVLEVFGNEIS

AR DBD-LBD = target: T3, AR DBD-LBD (human, UniProt P10275 557-920); test: cell-based or functional assay
T3 sequence: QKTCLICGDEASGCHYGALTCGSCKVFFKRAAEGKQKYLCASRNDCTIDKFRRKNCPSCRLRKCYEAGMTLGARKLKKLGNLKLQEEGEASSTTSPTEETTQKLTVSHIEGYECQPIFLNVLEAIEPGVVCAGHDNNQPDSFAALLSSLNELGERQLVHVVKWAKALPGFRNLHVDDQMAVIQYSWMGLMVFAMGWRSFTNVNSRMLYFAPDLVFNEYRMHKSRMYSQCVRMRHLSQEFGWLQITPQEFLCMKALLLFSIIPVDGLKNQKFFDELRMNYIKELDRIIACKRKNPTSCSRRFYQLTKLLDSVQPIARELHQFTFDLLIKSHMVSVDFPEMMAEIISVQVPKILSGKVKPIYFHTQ

[2] = target: B4; test: yeast two-hybrid (AH109), GAL4-AR-DBD + f-hRad9 fused to an activation domain, 10 nM DHT
[3] = target: T4, ARA67 clone of the CytoTrap screen, amino acids 20-585 of PAT1 (pMyr-ARA67) (Homo sapiens, UniProt Q92624 20-585); test: CytoTrap Sos yeast two-hybrid, growth of cdc25H on SD/Gal(-LU) at 37° C
T4 construct: The clone matched the DNA encoding aa 20-585 of PAT1 at 99.6% identity; also called pMyr-ARA67/PAT1
T4 sequence: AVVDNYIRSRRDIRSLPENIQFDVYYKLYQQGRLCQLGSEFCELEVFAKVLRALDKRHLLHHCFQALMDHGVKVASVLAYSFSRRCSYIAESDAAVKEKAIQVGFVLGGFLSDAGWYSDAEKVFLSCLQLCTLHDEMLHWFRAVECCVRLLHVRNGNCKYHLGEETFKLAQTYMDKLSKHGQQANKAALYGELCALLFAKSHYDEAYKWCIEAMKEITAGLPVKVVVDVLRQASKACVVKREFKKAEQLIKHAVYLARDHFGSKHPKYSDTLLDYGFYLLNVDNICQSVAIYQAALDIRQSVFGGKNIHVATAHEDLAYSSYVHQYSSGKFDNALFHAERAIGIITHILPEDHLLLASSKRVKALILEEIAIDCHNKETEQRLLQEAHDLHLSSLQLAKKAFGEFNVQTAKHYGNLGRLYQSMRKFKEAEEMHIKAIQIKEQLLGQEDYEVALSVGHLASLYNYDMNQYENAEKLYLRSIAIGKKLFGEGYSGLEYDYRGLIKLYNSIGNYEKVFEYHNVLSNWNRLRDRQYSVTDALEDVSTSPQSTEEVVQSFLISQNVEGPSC

[4] = target: T5, AR N-terminus, full length ARN (ARN1-556) (human, UniProt P10275 1-557); test: GST pull-down: GST-hRad9 with 35S-labeled AR domains
T5 sequence: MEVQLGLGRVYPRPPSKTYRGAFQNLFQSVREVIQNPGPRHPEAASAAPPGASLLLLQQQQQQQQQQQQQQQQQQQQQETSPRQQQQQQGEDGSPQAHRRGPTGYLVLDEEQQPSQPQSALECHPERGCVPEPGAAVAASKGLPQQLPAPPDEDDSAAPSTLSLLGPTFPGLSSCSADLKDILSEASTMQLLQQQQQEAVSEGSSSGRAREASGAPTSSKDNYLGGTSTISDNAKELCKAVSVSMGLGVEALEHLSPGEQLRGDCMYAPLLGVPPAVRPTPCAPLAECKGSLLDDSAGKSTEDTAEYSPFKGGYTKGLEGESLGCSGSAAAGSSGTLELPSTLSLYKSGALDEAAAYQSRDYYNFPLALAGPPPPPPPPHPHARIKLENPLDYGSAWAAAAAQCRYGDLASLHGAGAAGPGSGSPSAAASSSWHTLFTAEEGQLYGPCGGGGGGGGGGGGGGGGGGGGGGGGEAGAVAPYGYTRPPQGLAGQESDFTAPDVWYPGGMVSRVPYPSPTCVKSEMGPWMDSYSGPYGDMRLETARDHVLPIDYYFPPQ

[5] = target: T6, VP16-AR containing the residues 37 to 919 (human, UniProt P10275 37-920); test: mammalian two-hybrid in PC-3 cells, GAL4 DBD-FL-hRad9 + VP16-AR; inhibited by hydroxyflutamide
T6 construct: also called pCMX-VP16-AR; full length AR fused to VP16
T6 sequence: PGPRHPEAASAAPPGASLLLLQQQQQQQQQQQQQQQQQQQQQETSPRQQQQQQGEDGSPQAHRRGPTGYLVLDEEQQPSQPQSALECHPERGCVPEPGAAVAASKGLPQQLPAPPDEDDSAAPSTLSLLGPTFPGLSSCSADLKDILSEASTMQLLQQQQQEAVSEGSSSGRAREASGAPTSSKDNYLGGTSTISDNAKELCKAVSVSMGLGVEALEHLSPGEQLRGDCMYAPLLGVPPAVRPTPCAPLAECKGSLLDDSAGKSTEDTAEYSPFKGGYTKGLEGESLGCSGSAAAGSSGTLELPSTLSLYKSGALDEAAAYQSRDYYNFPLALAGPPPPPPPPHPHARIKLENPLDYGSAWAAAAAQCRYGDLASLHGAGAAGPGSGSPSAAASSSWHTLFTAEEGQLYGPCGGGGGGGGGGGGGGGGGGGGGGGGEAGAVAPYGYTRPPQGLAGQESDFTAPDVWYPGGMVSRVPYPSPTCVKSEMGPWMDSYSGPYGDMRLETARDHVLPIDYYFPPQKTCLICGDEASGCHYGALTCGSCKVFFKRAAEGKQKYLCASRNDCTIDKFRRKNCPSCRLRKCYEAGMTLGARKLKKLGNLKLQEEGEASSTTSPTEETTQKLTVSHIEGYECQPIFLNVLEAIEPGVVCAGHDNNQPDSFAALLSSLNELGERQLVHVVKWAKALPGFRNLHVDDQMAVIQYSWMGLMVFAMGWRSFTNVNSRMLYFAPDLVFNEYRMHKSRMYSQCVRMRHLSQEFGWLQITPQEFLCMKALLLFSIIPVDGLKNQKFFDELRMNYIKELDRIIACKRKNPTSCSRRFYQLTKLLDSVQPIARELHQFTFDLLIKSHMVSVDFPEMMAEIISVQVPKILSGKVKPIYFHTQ

[6] = target: B3; test: GST pull-down: GST-hRad9 with 35S-labeled AR domains

B1 was tested, and the binding result [1] was “no binding”, the binding result (vitamin D receptor (VDR)) was “no binding” and the “reporter activity (yeast two-hybrid, liquid β-gal assay, 10 nM DHT)” value (AR DBD-LBD) was 10 fold. B1: no binding [2].

B2: no binding [3].

B3: no binding [4]; binds [5].

B4: no binding [6].
